Measurements taken from patent CN113480644A (UNIV NANKAI, dated 2021).
Where two headings read alike, the source gives them in different places.

Legend:
[1] = molecular target: T1, SARS-CoV-2(2019-nCoV)Spike Protein(S1 Subunit,His Tag) (SARS-CoV-2 (2019-nCoV), UniProt P0DTC2 16-685)
[2] = molecular target: T1, SARS-CoV-2(2019-nCoV)Spike Protein(S1 …); assay: ELISA, S1-His coated, antibody titrated

Binder	EC50 [1] [nM]	EC50 [2] [nM]
PR301445 (antibody, V domains shown) VH: QVQLVQSGAEVKKPGASVKISCKTSGYTFTEYTMYWVRQAPGQRLEWMGGINPNNGDTSYNQKFKGRATLTVDKSATTAYMELSSLRSEDTAVYYCARDGYPYYFAMDYWGQGTTVTVSS VL: DIQMTQSPSSLSASVGDRVTITCKASQNVDTNVAWYQQKPGKAPKGLIYSASHRYSGVPSRFSGSGSGTDFTLTISSVQPEDLATYFCQQYNTYPWTFGQGTKVEIK	0.0147	–
PR301561 (antibody, V domains shown) VH: QVQLVQSGAEVKKPGASVKVSCKTSGYTFTEYTMYWVRQAPGQRLEWMGGINPNNGDTSYNQKFKGRVTITVDKSATTAYMELSSLRSEDTAVYYCARDGYPYYFAMDYWGQGTTVTVSS VL: DIQMTQSPSSLSASVGDRVTITCKASQNVDTNVAWYQQKPGKAPKGLIYSASHRYSGVPSRFSGSGSGTDFTLTISSVQPEDLATYFCQQYNTYPWTFGQGTKVEIK	0.022	–
PR301565 (antibody, V domains shown) VH: QVQLVQSGAEVKKPGASVKISCKTSGYTFTEYTMYWVRQAPGQRLEWMGGINPNQGDTSYNQKFKGRATLTVDKSATTAYMELSSLRSEDTAVYYCARDGYPYYFAMDYWGQGTTVTVSS VL: DIQMTQSPSSLSASVGDRVTITCKASQNVDTNVAWYQQKPGKAPKGLIYSASHRYSGVPSRFSGSGSGTDFTLTISSLQPEDLATYFCQQYNTYPWTFGQGTKVEIK	0.0143	–
PR301562 (antibody, V domains shown) VH: QVQLVQSGAEVKKPGASVKVSCKTSGYTFTEYTMYWVRQAPGQRLEWMGGINPNNGDTSYNQKFKGRVTITVDKSATTAYMELSSLRSEDTAVYYCARDGYPYYFAMDYWGQGTTVTVSS VL: DIQMTQSPSSLSASVGDRVTITCKASQNVDTNVAWYQQKPGKAPKGLIYSASSRYSGVPSRFSGSGSGTDFTLTISSVQPEDLATYFCQQYNTYPWTFGQGTKVEIK	0.015	–
PR301567 (antibody, V domains shown) VH: QVQLVQSGAEVKKPGASVKISCKTSGYTFTEYTMYWVRQAPGQRLEWMGGINPNQGDTSYNQKFKGRATLTVDKSATTAYMELSSLRSEDTAVYYCAREGYPYYFAMDYWGQGTTVTVSS VL: DIQMTQSPSSLSASVGDRVTITCKASQNVDTNVAWYQQKPGKAPKGLIYSASHRYSGVPSRFSGSGSGTDFTLTISSLQPEDLATYFCQQYNTYPWTFGQGTKVEIK	7.54	–
PR301446 (antibody, V domains shown) VH: QVQLVQSGAEVKKPGASVKISCKTSGYTFTEYTMYWVRQAPGQRLEWMGGINPNQGDTSYNQKFKGRATLTVDKSATTAYMELSSLRSEDTAVYYCARDGYPYYFAMDYWGQGTTVTVSS VL: DIQMTQSPSSLSASVGDRVTITCKASQNVDTNVAWYQQKPGKAPKGLIYSASSRYSGVPSRFSGSGSGTDFTLTISSVQPEDLATYFCQQYNTYPWTFGQGTKVEIK	–	0.00943
PR301447 (antibody, V domains shown) VH: QVQLVQSGAEVKKPGASVKISCKTSGYTFTEYTMYWVRQAPGQRLEWMGGINPNQGDTSYNQKFKGRATLTVDKSATTAYMELSSLRSEDTAVYYCAREGYPYYFAMDYWGQGTTVTVSS VL: DIQMTQSPSSLSASVGDRVTITCKASQNVDTNVAWYQQKPGKAPKGLIYSASSRYSGVPSRFSGSGSGTDFTLTISSVQPEDLATYFCQQYNTYPWTFGQGTKVEIK	2.22	–
PR301564 (antibody, V domains shown) VH: QVQLVQSGAEVKKPGASVKISCKTSGYTFTEYTMYWVRQAPGQRLEWMGGINPNNGDTSYNQKFKGRATLTVDKSATTAYMELSSLRSEDTAVYYCARDGYPYYFAMDYWGQGTTVTVSS VL: DIQMTQSPSSLSASVGDRVTITCKASQNVDTNVAWYQQKPGKAPKGLIYSASSRYSGVPSRFSGSGSGTDFTLTISSVQPEDLATYFCQQYNTYPWTFGQGTKVEIK	0.0154	–
PR301566 (antibody, V domains shown) VH: QVQLVQSGAEVKKPGASVKISCKTSGYTFTEYTMYWVRQAPGQRLEWMGGINPNQGDTSYNQKFKGRATLTVDKSATTAYMELSSLRSEDTAVYYCARDGYPYYFAMDYWGQGTTVTVSS VL: DIQMTQSPSSLSASVGDRVTITCKASQNVDTNVAWYQQKPGKAPKGLIYSASHRYSGVPSRFSGSGSGTDFTLTISSVQPEDLATYFCQQYNTYPWTFGQGTKVEIK	0.0149	–
PR301563 (antibody, V domains shown) VH: QVQLVQSGAEVKKPGASVKISCKTSGYTFTEYTMYWVRQAPGQRLEWMGGINPNNGDTSYNQKFKGRATLTVDKSATTAYMELSSLRSEDTAVYYCARDGYPYYFAMDYWGQGTTVTVSS VL: DIQMTQSPSSLSASVGDRVTITCKASQNVDTNVAWYQQKPGKAPKGLIYSASHRYSGVPSRFSGSGSGTDFTLTISSLQPEDLATYFCQQYNTYPWTFGQGTKVEIK	0.0217	–
PR301444 (antibody, V domains shown) VH: QVQLVQSGAEVKKPGASVKVSCKTSGYTFTEYTMYWVRQAPGQRLEWMGGINPNNGDTSYNQKFKGRVTITVDKSATTAYMELSSLRSEDTAVYYCARDGYPYYFAMDYWGQGTTVTVSS VL: DIQMTQSPSSLSASVGDRVTITCKASQNVDTNVAWYQQKPGKAPKGLIYSASHRYSGVPSRFSGSGSGTDFTLTISSLQPEDLATYFCQQYNTYPWTFGQGTKVEIK	0.0204	–
PR301568 (antibody, V domains shown) VH: QVQLVQSGAEVKKPGASVKISCKTSGYTFTEYTMYWVRQAPGQRLEWMGGINPNQGDTSYNQKFKGRATLTVDKSATTAYMELSSLRSEDTAVYYCAREGYPYYFAMDYWGQGTTVTVSS VL: DIQMTQSPSSLSASVGDRVTITCKASQNVDTNVAWYQQKPGKAPKGLIYSASHRYSGVPSRFSGSGSGTDFTLTISSVQPEDLATYFCQQYNTYPWTFGQGTKVEIK	9.41	–
PR301558 (antibody, V domains shown) VH: QVQLVQSGAEVKKPGASVKLSCKASGYSFTSYWVNWVRQAPGQGLEWIGMIHPSDSETRLNQKFKDRVTITVDKSTSTAYMELSSLRSEDTAVYYCARADGYEWYFDVWGRGTLVTVSS VL: DIVLTQSPASLAVSPGQRATITCRASESVDSYGNSFMHWYQQKPGQPPKLLIYRASNLESGIPARFSGSGSRTDFTLTINPVEANDVANYYCQQSNEDPWTFGQGTKVEIK	0.0405	–
PR301557 (antibody, V domains shown) VH: QVQLVQSGAEVKKPGASVKLSCKASGYSFTSYWVNWVRQAPGQGLEWIGMIHPSDSETRLNQKFKDRVTITVDKSTSTAYMELSSLRSEDTAVYYCARADGYEWYFDVWGRGTLVTVSS VL: DIVLTQSPASLAVSPGQRATITCRASESVDSYGNSFMHWYQQKPGQPPKLLIYRASNLESGVPARFSGSGSRTDFTLTINPVEANDVANYYCQQSNEDPWTFGQGTKVEIK	0.0438	–
PR301556 (antibody, V domains shown) VH: QVQLVQSGAEVKKPGASVKVSCKASGYSFTSYWVNWVRQAPGQGLEWMGMIHPSDSETRLNQKFKDRVTMTVDKSTSTAYMELSSLRSEDTAVYYCARADGYEWYFDVWGRGTLVTVSS VL: DIVLTQSPASLAVSPGQRATITCRASESVDSYGNSFMHWYQQKPGQPPKLLIYRASNLESGIPARFSGSGSRTDFTLTINPVEANDVANYYCQQSNEDPWTFGQGTKVEIK	0.0272	–
PR301442 (antibody, V domains shown) VH: QVQLVQSGAEVKKPGASVKLSCKASGYSFTSYWVNWVRQAPGQGLEWIGMIHPSDSETRLNQKFKDRVTITVDKSTSTAYMELSSLRSEDTAVYYCARADGYEWYFDVWGRGTLVTVSS VL: DIVLTQSPASLAVSPGQRATITCRASESVDSYGNSFMHWYQQKPGQPPKLLIYRASNLESGIPARFSGSGSGTDFTLTINPVEANDVANYYCQQSNEDPWTFGQGTKVEIK	0.0294	–
PR301441 (antibody, V domains shown) VH: QVQLVQSGAEVKKPGASVKVSCKASGYSFTSYWVNWVRQAPGQGLEWMGMIHPSDSETRLNQKFKDRVTMTVDKSTSTAYMELSSLRSEDTAVYYCARADGYEWYFDVWGRGTLVTVSS VL: DIVLTQSPASLAVSPGQRATITCRASESVDSYGNSFMHWYQQKPGQPPKLLIYRASNLESGVPARFSGSGSRTDFTLTINPVEANDVANYYCQQSNEDPWTFGQGTKVEIK	0.0154	–
